Assay in all cases: SPR
On the technique in general: SPR reads the build-up and loss of mass on a sensor chip optically.

Experiment [1] deals with Z_(VEGFR2_22)-(S4G)4-ABD035-(S4G)4-Z_(VEGFR2_40).
Experiment [2] concerns the target Z_(VEGFR2_40)-(S4G)4-ABD035-(S4G)4-Z_(VEGFR2_22).
The target in experiment [3] is Z_(VEGFR2_40)-(S4G)4-ABD035-(S4G)4-Z_(VEGFR2_40).

For “murine VEGFR2 (Sino Biological) (from UniProt P35918 20-762) (receptor)”, the off-rate constant (koff) (in general, the rate constant with which the complex falls apart) was 0.00014 s⁻¹ in experiment [1], 0.00018 s⁻¹ in experiment [2] and 0.00079 s⁻¹ in experiment [3].
